Among the data in publication PMC9652321, “Structural basis of human SNAPc recognizing proximal sequence element of snRNA promoter” are Kd values, retold here.

The target of one series is T1, mSNAPc#2 SNAP50-R151A (Homo sapiens, UniProt Q5SXM2;Q92966;Q16533;O75971 1-505;1-411;1-268;1-98, R151A).
T1 sequence 1: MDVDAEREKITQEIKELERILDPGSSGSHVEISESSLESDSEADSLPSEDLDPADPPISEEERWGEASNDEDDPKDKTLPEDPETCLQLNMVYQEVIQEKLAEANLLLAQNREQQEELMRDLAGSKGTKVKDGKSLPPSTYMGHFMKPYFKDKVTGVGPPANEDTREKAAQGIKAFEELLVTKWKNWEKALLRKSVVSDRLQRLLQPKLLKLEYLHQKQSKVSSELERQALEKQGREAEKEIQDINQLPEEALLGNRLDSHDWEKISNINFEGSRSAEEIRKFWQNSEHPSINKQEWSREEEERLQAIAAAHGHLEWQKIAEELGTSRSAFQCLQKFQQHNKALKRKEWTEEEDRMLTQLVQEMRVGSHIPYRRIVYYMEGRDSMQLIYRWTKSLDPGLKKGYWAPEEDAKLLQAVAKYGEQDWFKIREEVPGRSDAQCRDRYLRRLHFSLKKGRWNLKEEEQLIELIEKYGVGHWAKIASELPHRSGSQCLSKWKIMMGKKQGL
T1 sequence 2: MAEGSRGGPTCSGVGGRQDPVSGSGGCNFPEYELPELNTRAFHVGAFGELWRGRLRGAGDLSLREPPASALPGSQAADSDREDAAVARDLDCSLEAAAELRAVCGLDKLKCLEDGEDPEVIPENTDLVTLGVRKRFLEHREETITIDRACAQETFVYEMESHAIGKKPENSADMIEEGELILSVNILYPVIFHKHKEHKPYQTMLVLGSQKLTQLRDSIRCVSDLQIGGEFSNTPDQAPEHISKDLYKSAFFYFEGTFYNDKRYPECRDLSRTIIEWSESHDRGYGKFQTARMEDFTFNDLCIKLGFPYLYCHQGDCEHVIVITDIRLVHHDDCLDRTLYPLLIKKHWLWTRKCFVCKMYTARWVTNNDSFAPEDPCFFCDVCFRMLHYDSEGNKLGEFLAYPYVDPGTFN
T1 sequence 3: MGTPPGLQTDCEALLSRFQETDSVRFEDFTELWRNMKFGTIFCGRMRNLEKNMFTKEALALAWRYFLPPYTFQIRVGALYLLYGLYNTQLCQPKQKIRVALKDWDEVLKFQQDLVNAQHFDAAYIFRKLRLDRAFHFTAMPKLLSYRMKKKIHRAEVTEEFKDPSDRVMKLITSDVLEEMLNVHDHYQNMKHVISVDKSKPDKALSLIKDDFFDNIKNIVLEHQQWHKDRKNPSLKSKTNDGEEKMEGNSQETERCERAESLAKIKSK
T1 sequence 4: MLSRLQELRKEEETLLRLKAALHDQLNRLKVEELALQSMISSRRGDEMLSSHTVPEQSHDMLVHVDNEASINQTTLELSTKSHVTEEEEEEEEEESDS
Kind of series: SPR; EMSA: 100 mM KCl, 25 mM HEPES-K pH 7.6, 12.5 mM MgCl2, 10 uM ZnCl2, 0.1 mM EDTA, 10% glycerol, 3 mM DTT, 0.5 mM PMSF, 50 nM DNA, RT 30 min; SPR: 100 mM KCl, 12.5 mM MgCl2, 10 uM ZnCl2, 0.1 mM EDTA, 0.05% P20, 25 C. Conditions: protein: recombinant; tags: as P1; copies: 1;1;1;1. On the technique in general: SPR reads the build-up and loss of mass on a sensor chip optically.

Another series addresses T2, mSNAPc#2 SNAP190-Y389A (Homo sapiens, UniProt Q5SXM2;Q92966;Q16533;O75971 1-505;1-411;1-268;1-98, Y389A).
T2 sequence 1: T1 sequence 1 with Y389A
T2 sequence 2: T1 sequence 2 with A151R
T2 sequence 3: T1 sequence 3
T2 sequence 4: T1 sequence 4
The series is described as above. Conditions: protein: recombinant; tags: as P1; copies: 1;1;1;1.

Positions count from the first letter of the chain named.

B1: 25 bp hU6-1 PSE (SPR) (dsDNA)
DNA 1: TGCTTACCGTAACTTGAAAGTATTT
DNA 2: AAATACTTTCAAGTTACGGTAAGCA
As to B1, the values for the Kd with mSNAPc#2 SNAP50-R151A and with mSNAPc#2 SNAP190-Y389A were 1150 nM and 1080 nM, respectively.
